{"source": "patent US20020146411A1", "about": "“Anticoagulant agents useful in treatment of thrombosis” (SmithKline Beecham Corporation, priority 1996, published 2002)", "binders": {"B1": {"name": "murine anti-Factor IX monoclonal antibody BC2 (antibody, mouse IgG2a, V domains shown)", "VH": "QIQLVQSGPELKKPGETVKISCKASGYTFTNYGMNWVKQAPGKGLKWMGWINTRNGKSTYVDDFKGRFAFSLESSASTANLQIDNLKDEDTATYFCTREGNMDGYFPFTYWGQGTLVTVSA", "VL": "QIVLSQSPAILSASPGEKVTMTCRASSSVNYMHWYQQKPGSSPKPWIYATSNLASGVPARFSGSGSGTSYSLTISRVEAEDAATYYCQQWSINPRTFGGGTKLEIKR"}, "B2": {"name": "humanized anti-Factor IX monoclonal antibody SB 249417 (antibody, V domains shown)", "VH": "QVQLVQSGSELKKPGASVKVSCKASGYTFTNYGMNWVRQAPGQGLKWMGWINTRNGKSTYVDDFKGRFVFSLDSSVSTAYLQISSLKADDTAVYYCTREGNMDGYFPFTYWGQGTLVTVSS", "VL": "QIVLTQSPSSLSASVGDRVTITCRASSSVNYMHWYQQKPGKAPKPWIYATSNLASGVPSRFSGSGSGTDYTFTISSLQPEDIATYYCQQWSINPRTFGQGTKVEIKR"}, "B3": {"name": "humanized anti-Factor IX monoclonal antibody SB 257731 (antibody, V domains shown)", "VH": "QVQLVQSGSELKKPGASVKVSCKASGYTFTNYGMNWVRQAPGQGLKWMGWINTRNGKSTYVDDFKGRFVFSLDSSVSTAYLQISSLKADDTAVYYCTREGNMDGYFPFTYWGQGTLVTVSS", "VL": "QIVLTQSPATLSLSPGERATLSCRASSSVNYMHWYQQRPGQAPKPWIYATSNLASGVPARFSGSGSGTDYTLTISSLEPEDFAVYYCQQWSINPRTFGGGTKVEIK"}, "B4": {"name": "humanized anti-Factor IX monoclonal antibody SB 249413 (antibody, V domains shown)", "VH": "QVQLVQSGSELKKPGASVKVSCKASGYTFTNYGMNWVRQAPGQGLEWMGWINTRNGKSTYVDDFKGRFVFSLDTSVSTAYLQISSLKADDTAVYYCAREGNMDGYFPFTYWGQGTLVTVSS", "VL": "EIVLTQSPATLSLSPGERATLSCRASSSVNYMHWYQQRPGQAPRLLIYATSNLASGIPARFSGSGSGTDFTLTISSLEPEDFAVYYCQQWSINPRTFGGGTKVEIKR"}, "B5": {"name": "humanized anti-Factor IX monoclonal antibody SB 257732 (antibody, V domains shown)", "VH": "QIQLVQSGSELKKPGASVKVSCKASGYTFTNYGMNWVRQAPGQGLEWMGWINTRNGKSTYVDDFKGRFVFSLDTSVSTAYLQISSLKAEDTAVYFCTREGNMDGYFPFTYWGQGTLVTVSS", "VL": "QIVLTQSPSSLSASVGDRVTITCRASSSVNYMHWYQQKPGKAPKPWIYATSNLASGVPSRFSGSGSGTDYTLTISSLQPEDFATYYCQQWSINPRTFGGGTKLEIKR"}, "B6": {"name": "humanized anti-Factor IX monoclonal antibody SB 249415 (antibody, V domains shown)", "VH": "QVQLVQSGSELKKPGASVKVSCKASGYTFTNYGMNWVRQAPGQGLKWMGWINTRNGKSTYVDDFKGRFVFSLDSSVSTAYLQISSLKADDTAVYYCTREGNMDGYFPFTYWGQGTLVTVSS", "VL": "EIVLTQSPATLSLSPGERATLSCRASSSVNYMHWYQQRPGQAPKPWIYATSNLASGVPARFSGSGSGTDFTLTISSLEPEDFAVYYCQQWSINPRTFGGGTKVEIKR"}, "B7": {"name": "humanized anti-Factor IX monoclonal antibody SB 249416 (antibody, V domains shown)", "VH": "QVQLVQSGSELKKPGASVKVSCKASGYTFTNYGMNWVRQAPGQGLKWMGWINTRNGKSTYVDDFKGRFVFSLDSSVSTAYLQISSLKADDTAVYYCTREGNMDGYFPFTYWGQGTLVTVSS", "VL": "EIVLTQSPATLSLSPGERATLSCRASSSVNYMHWYQQRPGQAPKPWIYATSNLASGVPARFSGSGSGTDYTLTISSLEPEDFAVYYCQQWSINPRTFGGGTKVEIKR"}}, "key": {"human Factor IX (human)": {"target": "human Factor IX (human) (UniProt P00740)", "sequence (P00740 47-461 limits assumed)": "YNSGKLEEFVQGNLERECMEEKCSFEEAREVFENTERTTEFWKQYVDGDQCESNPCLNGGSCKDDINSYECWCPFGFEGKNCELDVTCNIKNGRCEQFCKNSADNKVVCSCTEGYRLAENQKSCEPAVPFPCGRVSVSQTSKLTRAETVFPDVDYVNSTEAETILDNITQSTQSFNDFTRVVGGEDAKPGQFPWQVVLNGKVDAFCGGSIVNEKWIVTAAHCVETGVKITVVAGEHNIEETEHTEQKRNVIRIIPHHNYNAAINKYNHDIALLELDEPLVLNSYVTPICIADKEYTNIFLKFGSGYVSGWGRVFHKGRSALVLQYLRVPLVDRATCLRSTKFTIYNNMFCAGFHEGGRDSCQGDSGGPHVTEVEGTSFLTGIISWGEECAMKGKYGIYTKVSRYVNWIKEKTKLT", "assay": "cell-based or functional assay"}, "[1]": {"target": "recombinant human Factor IX (rhFIX, Genetics Institute) (human) (UniProt P00740)", "sequence (P00740 47-461 limits assumed)": "as above", "assay": "titration calorimetry"}, "[2]": {"target": "recombinant human Factor IX (rhFIX, Genetics Institute) (human) (UniProt P00740)", "assay": "titration calorimetry, 25° C. (calculated from the van't Hoff equation), 10 mM CaCl2"}, "[3]": {"target": "recombinant human Factor IX (rhFIX, Genetics Institute) (human) (UniProt P00740)", "assay": "isothermal titration calorimetry"}, "[4]": {"target": "recombinant human Factor IX (rhFIX, Genetics Institute) (human) (UniProt P00740)", "assay": "isothermal titration calorimetry, 25° C."}, "[5]": {"target": "recombinant human Factor IX (rhFIX, Genetics Institute) (human) (UniProt P00740)", "assay": "biosensor (BIAcore)"}, "[6]": {"target": "recombinant human Factor IX (rhFIX, Genetics Institute) (human) (UniProt P00740)", "assay": "titration calorimetry, 37° C., 10 mM CaCl2"}, "[7]": {"target": "recombinant human Factor IX (rhFIX, Genetics Institute) (human) (UniProt P00740)", "assay": "titration microcalorimetry, 106 uM FIX injected into 2 uM mAb"}, "[8]": {"target": "recombinant human Factor IX (rhFIX, Genetics Institute) (human) (UniProt P00740)", "assay": "BIAcore, calculated from kdiss and kass"}, "[9]": {"target": "recombinant human Factor IX (rhFIX, Genetics Institute) (human) (UniProt P00740)", "assay": "BIAcore, antibody captured on immobilised protein A, rhFIX at 49 nM, 5 mM Ca2+"}, "[10]": {"target": "recombinant human Factor IX (rhFIX, Genetics Institute) (human) (UniProt P00740)", "assay": "BIAcore kinetics of Factor IX binding"}, "[11]": {"target": "recombinant human Factor IX (rhFIX, Genetics Institute) (human) (UniProt P00740)", "assay": "BIAcore, calculated"}}}
{"binder": "B1", "values": [{"measurement": "IC50, nM (aPTT of human plasma)", "setting": "human Factor IX (human)", "value": 50, "unit": "nM"}, {"measurement": "aPTT at saturating antibody", "setting": "human Factor IX (human)", "value": 90, "unit": "s"}, {"measurement": "aPTTmax / aPTTnormal × 100 %", "setting": "human Factor IX (human)", "value": 350, "unit": "%"}]}
{"binder": "B2", "values": [{"measurement": "Molar Binding Ratio FIX/mAb", "setting": "[1]", "value": 1.5, "unit": "FIX/mAb"}, {"measurement": "Kd", "setting": "[2]", "value": 4, "unit": "nM"}, {"measurement": "Stoichiometry of Factor IX Binding (moles Factor IX per mole mAb)", "setting": "[3]", "value": 1.5}, {"measurement": "Kd", "setting": "[4]", "value": 4, "unit": "nM"}, {"measurement": "Kd", "setting": "[5]", "value": 2, "unit": "nM"}, {"measurement": "koff", "setting": "[5]", "value": 0.0004, "unit": "s⁻¹"}, {"measurement": "kon", "setting": "[5]", "value": 200000, "unit": "M⁻¹ s⁻¹"}, {"measurement": "Kd", "setting": "[6]", "value": 12, "unit": "nM"}, {"measurement": "molar binding ratio at the equivalence point", "setting": "[7]", "value": 2, "unit": "FIX per mAb"}, {"measurement": "Kd", "setting": "[8]", "value": 1.9, "unit": "nM"}, {"measurement": "koff", "setting": "[9]", "value": 0.00041, "unit": "s⁻¹"}, {"measurement": "kon", "setting": "[9]", "value": 200000, "unit": "M⁻¹ s⁻¹"}]}
{"binder": "B3", "values": [{"measurement": "koff", "setting": "[10]", "value": 0.00099, "unit": "s⁻¹"}, {"measurement": "kon", "setting": "[10]", "value": 920000, "unit": "M⁻¹ s⁻¹"}, {"measurement": "Kd", "setting": "[11]", "value": 1.1, "unit": "nM"}]}
{"binder": "B4", "values": [{"measurement": "Molar Binding Ratio FIX/mAb", "setting": "[1]", "value": 1.9, "unit": "FIX/mAb"}, {"measurement": "Kd", "setting": "[2]", "value": 6, "unit": "nM"}, {"measurement": "Kd", "setting": "[6]", "value": 12, "unit": "nM"}, {"measurement": "koff", "setting": "[10]", "value": 0.0028, "unit": "s⁻¹"}, {"measurement": "kon", "setting": "[10]", "value": 650000, "unit": "M⁻¹ s⁻¹"}, {"measurement": "Kd", "setting": "[11]", "value": "3.7 to 5.1", "unit": "nM"}]}
{"binder": "B5", "values": [{"measurement": "Molar Binding Ratio FIX/mAb", "setting": "[1]", "value": 1.8, "unit": "FIX/mAb"}, {"measurement": "Kd", "setting": "[2]", "value": 4, "unit": "nM"}, {"measurement": "Kd", "setting": "[6]", "value": 9, "unit": "nM"}, {"measurement": "koff", "setting": "[10]", "value": 0.0012, "unit": "s⁻¹"}, {"measurement": "kon", "setting": "[10]", "value": "1.1e+06", "unit": "M⁻¹ s⁻¹"}, {"measurement": "Kd", "setting": "[11]", "value": 1.5, "unit": "nM"}]}
{"binder": "B6", "values": [{"measurement": "Molar Binding Ratio FIX/mAb", "setting": "[1]", "value": 1.7, "unit": "FIX/mAb"}, {"measurement": "Kd", "setting": "[2]", "value": 3, "unit": "nM"}, {"measurement": "Kd", "setting": "[6]", "value": 7, "unit": "nM"}, {"measurement": "koff", "setting": "[10]", "value": 0.00018, "unit": "s⁻¹"}, {"measurement": "kon", "setting": "[10]", "value": 750000, "unit": "M⁻¹ s⁻¹"}, {"measurement": "Kd", "setting": "[11]", "value": "1.1 to 2.3", "unit": "nM"}]}
{"binder": "B7", "values": [{"measurement": "koff", "setting": "[10]", "value": 0.00041, "unit": "s⁻¹"}, {"measurement": "kon", "setting": "[10]", "value": 520000, "unit": "M⁻¹ s⁻¹"}, {"measurement": "Kd", "setting": "[11]", "value": 0.8, "unit": "nM"}]}
